Patent US20210188958A1 (JILIN UNIVERSITY, published 2021)

Tests used:
Assay in all cases: indirect ELISA, peptide coated at 0.25 ug/well
[1] = molecular target: T1, synthetic peptide W11 (Trichinella spiralis)
T1 construct: also called Ts-WN10-W11
T1 peptide: KETECGIKEKAFNSY

[2] = molecular target: T2, synthetic peptide W1 (Trichinella spiralis)
T2 construct: also called Ts-WN10-W1
T2 peptide: ALFSSDLKQESGVFH

[3] = molecular target: T3, synthetic peptide W2 (Trichinella spiralis)
T3 construct: also called Ts-WN10-W2
T3 peptide: VNCQGEGRRKHCTME

[4] = molecular target: T4, synthetic peptide W5 (Trichinella spiralis)
T4 construct: also called Ts-WN10-W5
T4 peptide: QILGETTHYGRNDP

[5] = molecular target: T5, synthetic peptide W10 (Trichinella spiralis)
T5 construct: also called Ts-WN10-W10
T5 peptide: IFESDKKKSSGTYLL

[6] = molecular target: T6, synthetic peptide W7 (Trichinella spiralis)
T6 construct: also called Ts-WN10-W7
T6 peptide: HKLVELEESSTMGIL

[7] = molecular target: T7, synthetic peptide W14 (Trichinella spiralis)
T7 construct: also called Ts-WN10-W14
T7 peptide: VEYKYFDPTKSTVEC

[8] = molecular target: T8, synthetic peptide W4 (Trichinella spiralis)
T8 construct: also called Ts-WN10-W4
T8 peptide: TVSKCFEEVEEPLII

[9] = molecular target: T9, synthetic peptide W13 (Trichinella spiralis)
T9 construct: also called Ts-WN10-W13
T9 peptide: DVYKNCSGSGDSKVC

[10] = molecular target: T10, synthetic peptide W9 (Trichinella spiralis)
T10 construct: also called Ts-WN10-W9
T10 peptide: EEQVVSQRSQMLGGT

[11] = molecular target: T11, synthetic peptide W8 (Trichinella spiralis)
T11 construct: also called Ts-WN10-W8
T11 peptide: CTLEYRHRTPSTATV

[12] = molecular target: T12, synthetic peptide W6 (Trichinella spiralis)
T12 construct: also called Ts-WN10-W6
T12 peptide: ALFSSDSKEQSGVLH

[13] = molecular target: T13, synthetic peptide W12 (Trichinella spiralis)
T13 construct: also called Ts-WN10-W12
T13 peptide: EKAFNSYEDVYKNCS

[14] = molecular target: T14, synthetic peptide W3 (Trichinella spiralis)
T14 construct: also called Ts-WN10-W3
T14 peptide: TMEYTHRNPSKATVS

B1: WN10-1H9-Ab (antibody, V domains shown)
VH: QVQLQQPGSELVRPGASVKLSCKASGYTFTSYWMHWVKQRPGQGLEWIGNISPGSGNTNYDEKFKTKATLTVDTSSSTAYMQLSSLTSEDSAVYYCTRHGTVDYWGQGTTVTVSS
VL: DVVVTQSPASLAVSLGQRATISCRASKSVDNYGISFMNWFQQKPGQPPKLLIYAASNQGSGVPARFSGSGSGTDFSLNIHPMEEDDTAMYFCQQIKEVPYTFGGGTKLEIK
notes: Mouse monoclonal antibody; It was used as hybridoma supernatant in the ELISAs; also called 1H9 monoclonal antibody; monoclonal antibody generated by hybridoma cell line WN10-1H9 (CGMCC No. 18316)
In the case of B1, the “OD 450 nm” value [1] is reported as 0.147 OD 450 nm, the “OD 450 nm” value [2] is reported as 0.0733 OD 450 nm and the “OD 450 nm” value [3] is reported as 1.15 OD 450 nm. For the same binder, the “OD 450 nm” value [4] was 0.286 OD 450 nm, the “OD 450 nm” value [5] was 0.161 OD 450 nm and the “OD 450 nm” value [6] was 0.162 OD 450 nm. The “OD 450 nm” value [7] was 0.158 OD 450 nm, the “OD 450 nm” value [8] was 0.171 OD 450 nm and the “OD 450 nm” value [9] was 0.166 OD 450 nm. The “OD 450 nm” value [10] was 0.144 OD 450 nm, the “OD 450 nm” value [11] was 0.152 OD 450 nm and the “OD 450 nm” value [12] was 0.127 OD 450 nm. For the same binder, the “OD 450 nm” value [13] was 0.16 OD 450 nm and the “OD 450 nm” value [14] was 0.149 OD 450 nm.
